Laboratory results: publication PMC9957047, “A Role for the Interactions between Polδ and PCNA Revealed by Analysis of pol3-01 Yeast Mutants” (Genes, 2023)

Target: T1, PCNA (Pol30) immunoprecipitated in the co-IP of Figure 2C (S. cerevisiae, UniProt P15873 1-258)
T1 construct: Pol30 (PCNA), S. cerevisiae; homotrimeric clamp of three copies of Pol30; No tag is named for PCNA in this experiment; the methods precipitate with an anti-PCNA antibody; source: S. cerevisiae, in lysate
T1 sequence (looked up): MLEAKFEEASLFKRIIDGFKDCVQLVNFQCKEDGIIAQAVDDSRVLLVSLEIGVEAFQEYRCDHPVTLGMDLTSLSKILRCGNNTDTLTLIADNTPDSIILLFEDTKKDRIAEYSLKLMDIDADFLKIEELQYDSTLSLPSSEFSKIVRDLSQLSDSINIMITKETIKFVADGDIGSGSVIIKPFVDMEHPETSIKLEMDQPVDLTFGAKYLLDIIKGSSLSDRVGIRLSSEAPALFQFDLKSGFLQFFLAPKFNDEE
Assay: co-IP; PCNA immunoprecipitated from yeast extract (methods: 2 μg anti-PCNA antibody, overnight at 4 °C, washes with lysis buffer at 220 mM NaCl); level of FLAG-tagged Pol3 or Pol3-01 co-IPed measured (Figure 2C)
Conditions: partners not purified

B1: FLAG-tagged Pol3-01 (Pol3-01-Flag) of the co-IP of Figure 2C (natural protein, S. cerevisiae, UniProt P15436 1-1097, looked up)
chain: MSEKRSLPMVDVKIDDEDTPQLEKKIKRQSIDHGVGSEPVSTIEIIPSDSFRKYNSQGFKAKDTDLMGTQLESTFEQELSQMEHDMADQEEHDLSSFERKKLPTDFDPSLYDISFQQIDAEQSVLNGIKDENTSTVVRFFGVTSEGHSVLCNVTGFKNYLYVPAPNSSDANDQEQINKFVHYLNETFDHAIDSIEVVSKQSIWGYSGDTKLPFWKIYVTYPHMVNKLRTAFERGHLSFNSWFSNGTTTYDNIAYTLRLMVDCGIVGMSWITLPKGKYSMIEPNNRVSSCQLEVSINYRNLIAHPAEGDWSHTAPLRIMSFAIACAGRIGVFPEPEYDPVIQIANVVSIAGAKKPFIRNVFTLNTCSPITGSMIFSHATEEEMLSNWRNFIIKVDPDVIIGYNTTNFDIPYLLNRAKALKVNDFPYFGRLKTVKQEIKESVFSSKAYGTRETKNVNIDGRLQLDLLQFIQREYKLRSYTLNAVSAHFLGEQKEDVHYSIISDLQNGDSETRRRLAVYCLKDAYLPLRLMEKLMALVNYTEMARVTGVPFSYLLARGQQIKVVSQLFRKCLEIDTVIPNMQSQASDDQYEGATVIEPIRGYYDVPIATLDFNSLYPSIMMAHNLCYTTLCNKATVERLNLKIDEDYVITPNGDYFVTTKRRRGILPIILDELISARKRAKKDLRDEKDPFKRDVLNGRQLALKISANSVYGFTGATVGKLPCLAISSSVTAYGRTMILKTKTAVQEKYCIKNGYKHDAVVVYGDTDSVMVKFGTTDLKEAMDLGTEAAKYVSTLFKHPINLEFEKAYFPYLLINKKRYAGLFWTNPDKFDKLDQKGLASVRRDSCSLVSIVMNKVLKKILIERNVDGALAFVRETINDILHNRVDISKLIISKTLAPNYTNPQPHAVLAERMKRREGVGPNVGDRVDYVIIGGNDKLYNRAEDPLFVLENNIQVDSRYYLTNQLQNPIISIVAPIIGDKQANGMFVVKSIKINTGSQKGGLMSFIKKVEACKSCKGPLRKGEGPLCSNCLARSGELYIKALYDVRDLEEKYSRLWTQCQRCAGNLHSEVLCSNKNCDIFYMRVKVKKELQEKVEQLSKW
notes: Pol3, catalytic subunit of DNA polymerase delta, S. cerevisiae, pol3-01 allele (D321A, E323A); the tags may be swapped in the text; source: S. cerevisiae, in lysate
fold reduction in co-IP against Pol3: 4 fold
